Measured values from US20160347801A1 (NATIONAL CANCER CENTER, published 2016).
One block for each molecule: values may come before it. Where no end group is shown, it is not given here. [ ]: non-standard residue; d: D form. pT = C[C@@H](OP(=O)(O)O)[C@H](N)C(=O)O

Legend:
human PLK1-PBD (371-594) [1] = target: T1, human PLK1-PBD (371-594) (human, UniProt P53350 371-594); experiment: fluorescence polarization, FITC peptide 10 nM, PBD 0 to 4 µM
T1 construct: range 371-594; Made in E. coli as a GST fusion (pGEX6p-1); also called PBD of PLK1; purified PBD

human PLK1-PBD (371-594) [2] = target: T1, human PLK1-PBD (371-594); experiment: fluorescence polarization, FITC peptide 10 nM
Protocol: (§1) The final protein concentrations ranged from 0 to 4 uM, and the final peptide concentration was 10 nM. Fluorescence polarization was analyzed 30 min after mixing the peptide and proteins in a 96-well plate using an INFINTE 200 PRO (Tecan). Binding curves were fitted using the GraphPad Prism software.

[3] = target: T2, NCAPG2 (detected by immunoblotting in Flag-PLK1 immunoprecipitates) (human, UniProt Q86XI2 1-1143, limits assumed); experiment: Flag-bead pull-down, NCAPG2 immunoblot
T2 construct: Apparently the cells' own NCAPG2
T2 sequence: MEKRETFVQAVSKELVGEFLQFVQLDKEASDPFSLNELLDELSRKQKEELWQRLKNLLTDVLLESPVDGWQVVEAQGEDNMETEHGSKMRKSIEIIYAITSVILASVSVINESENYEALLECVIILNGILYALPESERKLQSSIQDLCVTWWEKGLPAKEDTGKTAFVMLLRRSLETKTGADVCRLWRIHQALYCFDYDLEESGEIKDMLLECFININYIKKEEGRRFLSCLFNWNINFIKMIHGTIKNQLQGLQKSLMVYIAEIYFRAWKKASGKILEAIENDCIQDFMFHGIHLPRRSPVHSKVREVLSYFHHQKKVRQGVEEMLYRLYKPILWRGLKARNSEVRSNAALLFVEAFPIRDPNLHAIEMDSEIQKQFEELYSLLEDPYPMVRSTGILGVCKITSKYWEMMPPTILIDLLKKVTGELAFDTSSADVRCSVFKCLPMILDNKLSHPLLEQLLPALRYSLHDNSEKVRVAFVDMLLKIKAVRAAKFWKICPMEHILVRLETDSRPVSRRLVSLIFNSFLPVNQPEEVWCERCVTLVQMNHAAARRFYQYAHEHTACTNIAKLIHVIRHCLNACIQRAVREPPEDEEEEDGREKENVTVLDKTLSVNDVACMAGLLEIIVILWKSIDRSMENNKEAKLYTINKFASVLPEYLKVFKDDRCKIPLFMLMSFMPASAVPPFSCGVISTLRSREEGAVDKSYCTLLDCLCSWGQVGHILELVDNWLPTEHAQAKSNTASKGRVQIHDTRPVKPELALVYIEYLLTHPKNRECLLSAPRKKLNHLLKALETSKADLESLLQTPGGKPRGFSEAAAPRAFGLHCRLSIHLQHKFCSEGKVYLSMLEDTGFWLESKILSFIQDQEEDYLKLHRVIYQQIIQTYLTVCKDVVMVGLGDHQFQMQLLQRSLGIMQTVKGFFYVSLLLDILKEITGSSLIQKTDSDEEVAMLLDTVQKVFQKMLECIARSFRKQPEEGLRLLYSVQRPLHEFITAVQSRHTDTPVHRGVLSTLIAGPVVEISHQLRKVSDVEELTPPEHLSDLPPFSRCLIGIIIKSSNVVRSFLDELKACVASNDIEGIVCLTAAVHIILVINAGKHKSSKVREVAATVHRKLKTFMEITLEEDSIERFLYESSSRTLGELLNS
Protocol: The primary antibodies were purchased from commercial sources as follows: Histon H3 pS10 (Abcam, Cambridge, UK), NCAPG2 (Novus Biological, 1/1000), PLK1 (Novus Biological, 1/1000), BubR1 (BD Biosciences, 1/1000), β-actin (Sigma-Aldrich, 1/5000), and CREST (ImmunoVision, 1/1000). BubR1 676 antibodies (1/10000) were prepared as previously reported (Elowe, S., et al. Tension-sensitive Plk1 phosphorylation on BubR1 regulates the stability of kinetochore microtubule interactions. Genes Dev 21, 2205-19 (2007)). The precipitates were washed with TAP buffer three times at 4° C., re-suspended in 20 μl of 2X Sample buffer (125 mM Tris (pH 6.8), 200 mM DTT, 4% SDS, 20% Glycerol, 0.004% Bromophenol Blue) and proteins were denatured at 100° C. for 5 min.
For the detection of proteins using the immunoblottings, subjects were protein complexes from immunoprecipitation or whole cell lysates harvested from indicated conditions. Whole cells were harvested with lysis buffer (20 mM Tris, 5 mM EDTA, 10 mM Na₄P₂O₇, 100 mM NaF, 2 mM Na₃VO₄, 1% Np-40, 0.2% Protease Inhibitor Cocktail, and 1 mM PMSF) and centrifuged at 10,000 rpm, 4° C., 10 min. Protein concentration was determined using BCA™ protein assay kit (Pierce, Rockford, USA). […]

human PLK2-PBD (451-685) = target: T3, human PLK2-PBD (451-685) (human, UniProt Q9NYY3 451-685); experiment: fluorescence polarization, FITC peptide 10 nM
T3 construct: range 451-685; GST fusion from pGEX6p-1, GST cleaved by 3C protease
T3 sequence (looked up): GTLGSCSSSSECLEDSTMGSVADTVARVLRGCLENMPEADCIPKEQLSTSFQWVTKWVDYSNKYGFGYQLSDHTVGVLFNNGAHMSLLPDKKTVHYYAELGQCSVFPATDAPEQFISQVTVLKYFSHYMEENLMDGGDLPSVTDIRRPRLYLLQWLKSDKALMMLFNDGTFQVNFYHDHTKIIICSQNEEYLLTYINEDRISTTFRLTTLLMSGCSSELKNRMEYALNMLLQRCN
Protocol: as §1

human PLK3-PBD (412-646) = target: T4, human PLK3-PBD (412-646) (human, UniProt Q9H4B4 412-646); experiment: fluorescence polarization, FITC peptide 10 nM
T4 construct: range 412-646; GST fusion from pGEX6p-1, GST cleaved by 3C protease
T4 sequence (looked up): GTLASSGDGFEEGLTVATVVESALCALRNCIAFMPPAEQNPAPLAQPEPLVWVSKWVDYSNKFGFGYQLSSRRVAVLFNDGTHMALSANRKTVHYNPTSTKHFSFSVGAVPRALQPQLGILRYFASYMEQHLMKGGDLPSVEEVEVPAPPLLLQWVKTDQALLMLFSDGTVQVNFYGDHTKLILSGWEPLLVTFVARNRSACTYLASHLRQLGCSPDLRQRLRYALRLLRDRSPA
Protocol: as §1

T1 sequence (P53350 371-594 limits assumed): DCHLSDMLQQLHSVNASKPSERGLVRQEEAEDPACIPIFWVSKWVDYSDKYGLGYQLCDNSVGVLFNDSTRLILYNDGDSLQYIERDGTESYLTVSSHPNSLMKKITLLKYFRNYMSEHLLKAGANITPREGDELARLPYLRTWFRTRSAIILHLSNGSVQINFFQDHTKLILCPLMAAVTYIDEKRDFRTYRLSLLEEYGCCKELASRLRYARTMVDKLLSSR

Molecule: FITC-labelled 1010pT peptide (GVLSpTLI)
Kd (human PLK1-PBD (371-594) [1]): 69.9 nM

Molecule: GVLSDLI (also: FITC label, site not given here) [FITC-labeled 1010D peptide (GVLSDLI)]
binding result (human PLK1-PBD (371-594) [2]): no binding (tested: protein 0 to 4 uM)

Molecule: GVLSELI (also: FITC label, site not given here) [FITC-labeled 1010E peptide (GVLSELI)]
binding result (human PLK1-PBD (371-594) [2]): no binding (tested: protein 0 to 4 uM)

Now from value to molecule:

binding result [3]: no binding
B1: Flag-Plk1^FAA (other, UniProt P53350 1-603, looked up)
chain: MSAAVTAGKLARAPADPGKAGVPGVAAPGAPAAAPPAKEIPEVLVDPRSRRRYVRGRFLGKGGFAKCFEISDADTKEVFAGKIVPKSLLLKPHQREKMSMEISIHRSLAHQHVVGFHGFFEDNDFVFVVLELCRRRSLLELHKRRKALTEPEARYYLRQIVLGCQYLHRNRVIHRDLKLGNLFLNEDLEVKIGDFGLATKVEYDGERKKTLCGTPNYIAPEVLSKKGHSFEVDVWSIGCIMYTLLVGKPPFETSCLKETYLRIKKNEYSIPKHINPVAASLIQKMLQTDPTARPTINELLNDEFFTSGYIPARLPITCLTIPPRFSIAPSSLDPSNRKPLTVLNKGLENPLPERPREKEEPVVRETGEVVDCHLSDMLQQLHSVNASKPSERGLVRQEEAEDPACIPIFWVSKFVDYSDKYGLGYQLCDNSVGVLFNDSTRLILYNDGDSLQYIERDGTESYLTVSSHPNSLMKKITLLKYFRNYMSEHLLKAGANITPREGDELARLPYLRTWFRTRSAIILHLSNGSVQINFFQDATALILCPLMAAVTYIDEKRDFRTYRLSLLEEYGCCKELASRLRYARTMVDKLLSSRSASNRLKAS
notes: also called FAA mutant; substrate non recognizable FAA mutant; not shown: Flag tag

binding result (human PLK2-PBD (451-685)): no binding (tested: protein 0 to 4 uM)
binding result (human PLK3-PBD (412-646)): no binding (tested: protein 0 to 4 uM)
B2: FITC-labelled 1010pT peptide (GVLSpTLI) (peptide)
peptide: GVLS[pT]LI
modifications: also: FITC label, site not given here
notes: this peptide carries pThr at the fifth position; also called phosphorylated 7-mer peptide 1006GVLS-pT-LI1012
